Measurements as given in the supplement of paper PMC11246515.
± gives the standard deviation of the averaged measurements.

Assay: total protein half-life in vivo (active degradation + dilution); higher = more stable protein
[1] = E. coli NCM3722 delta-clpP delta-lon delta-hslV, growth: N-lim chemostat, doubling time 6 h
[2] = E. coli NCM3722 delta-clpP, growth: N-lim chemostat, doubling time 6 h
[3] = E. coli NCM3722 delta-hslV, growth: N-lim chemostat, doubling time 6 h
[4] = E. coli NCM3722 delta-lon, growth: N-lim chemostat, doubling time 6 h
[5] = E. coli NCM3722 delta-smpB, growth: N-lim chemostat, doubling time 6 h
[6] = wild type E. coli NCM3722, growth: C-lim chemostat, doubling time 3 h
[7] = wild type E. coli NCM3722, growth: C-lim chemostat, doubling time 6 h
[8] = wild type E. coli NCM3722, growth: C-lim chemostat, doubling time 12 h
[9] = wild type E. coli NCM3722, growth: N-lim chemostat, doubling time 6 h
[10] = wild type E. coli NCM3722, growth: N-lim chemostat, doubling time 12 h
[11] = wild type E. coli NCM3722, growth: P-lim chemostat, doubling time 6 h
[12] = wild type E. coli NCM3722, growth: P-lim chemostat, doubling time 12 h

Substance	total protein half-life in vivo [1] [h]	total protein half-life in vivo [2] [h]	total protein half-life in vivo [3] [h]	total protein half-life in vivo [4] [h]	total protein half-life in vivo [5] [h]	total protein half-life in vivo [6] [h]	total protein half-life in vivo [7] [h]	total protein half-life in vivo [8] [h]	total protein half-life in vivo [9] [h]	total protein half-life in vivo [10] [h]	total protein half-life in vivo [11] [h]	total protein half-life in vivo [12] [h]
P0AAI3	4.9 ± 0.24	5.097 ± 0.043	4.76 ± 0.23	4.88 ± 0.19	4.46 ± 0.14	3.11 ± 0.11	5.51 ± 0.52	10.8 ± 0.55	4.53 ± 0.27	8.44 ± 0.27	6.15 ± 0.37	10.2 ± 0.18
MFEINPVNNRIQDLTERSDVLRGYLDYDAKKERLEEVNAELEQPDVWNEPERAQALGKERSSLEAVVDTLDQMKQGLEDVSGLLELAVEADDEETFNEAVAELDALEEKLAQLEFRRMFSGEYDSADCYLDIQAGSGGTEAQDWASMLERMYLRWAESRGFKTEIIEESEGEVAGIKSVTIKISGDYAYGWLRTETGVHRLVRKSPFDSGGRRHTSFSSAFVYPEVDDDIDIEINPADLRIDVYRTSGAGGQHVNRTESAVRITHIPTGIVTQCQNDRSQHKNKDQAMKQMKAKLYELEMQKKNAEKQAMEDNKSDIGWGSQIRSYVLDDSRIKDLRTGVETRNTQAVLDGSLDQFIEASLKAGL	5.162 ± 0.05	4.669 ± 0.007	4.335 ± 0.033	5.14 ± 0.28	4.282 ± 0.0079	2.79 ± 0.044	4.99 ± 0.27	8.37 ± 0.37	4.37 ± 0.28	6.87 ± 0.013	4.6 ± 0.33	8.54 ± 0.3
MTAPSQVLKIRRPDDWHLHLRDGDMLKTVVPYTSEIYGRAIVMPNLAPPVTTVEAAVAYRQRILDAVPAGHDFTPLMTCYLTDSLDPNELERGFNEGVFTAAKLYPANATTNSSHGVTSIDAIMPVLERMEKIGMPLLVHGEVTHADIDIFDREARFIESVMEPLRQRLTALKVVFEHITTKDAADYVRDGNERLAATITPQHLMFNRNHMLVGGVRPHLYCLPILKRNIHQQALRELVASGFNRVFLGTDSAPHARHRKESSCGCAGCFNAPTALGSYATVFEEMNALQHFEAFCSVNGPQFYGLPVNDTFIELVREEQQVAESIALTDDTLVPFLAGETVRWSVKQ	5.58 ± 0.26	5.17 ± 0.099	5.194 ± 0.04	5.46 ± 0.25	4.78 ± 0.2	2.85 ± 0.047	5.64 ± 0.76	8.19 ± 2.8	5.06 ± 0.61	9.47 ± 0.78	6.06 ± 0.17	13.6 ± 0.86
MTSLVSLENVSVSFGQRRVLSDVSLELKPGKILTLLGPNGAGKSTLVRVVLGLVTPDEGVIKRNGKLRIGYVPQKLYLDTTLPLTVNRFLRLRPGTHKEDILPALKRVQAGHLINAPMQKLSGGETQRVLLARALLNRPQLLVLDEPTQGVDVNGQVALYDLIDQLRRELDCGVLMVSHDLHLVMAKTDEVLCLNHHICCSGTPEVVSLHPEFISMFGPRGAEQLGIYRHHHNHRHDLQGRIVLRRGNDRS [P0A9X1]	5.6 ± 0.31	5.12 ± 0.41	2.88 ± 1.1	2 ± 0.1	4.75 ± 2.8	2.63 ± 0.088	4.39 ± 0.11	6.41 ± 2.1	2.6 ± 0.37	5.01 ± 2	4.12 ± 0.059	7.83 ± 2
METTQTSTIASKDSRSAWRKTDTMWMLGLYGTAIGAGVLFLPINAGVGGMIPLIIMAILAFPMTFFAHRGLTRFVLSGKNPGEDITEVVEEHFGIGAGKLITLLYFFAIYPILLVYSVAITNTVESFMSHQLGMTPPPRAILSLILIVGMMTIVRFGEQMIVKAMSILVFPFVGVLMLLALYLIPQWNGAALETLSLDTASATGNGLWMTLWLAIPVMVFSFNHSPIISSFAVAKREEYGDMAEQKCSKILAFAHIMMVLTVMFFVFSCVLSLTPADLAAAKEQNISILSYLANHFNAPVIAWMAPIIAIIAITKSFLGHYLGAREGFNGMVIKSLRGKGKSIEINKLNRITALFMLVTTWIVATLNPSILGMIETLGGPIIAMILFLMPMYAIQKVPAMRKYSGHISNVFVVVMGLIAISAIFYSLFS [P0AAD6]			0.951			1.85	5.62 ± 2.4	2.71			1.58	3.86 ± 0.51
MSETAKKVIVGMSGGVDSSVSAWLLQQQGYQVEGLFMKNWEEDDGEEYCTAAADLADAQAVCDKLGIELHTVNFAAEYWDNVFELFLAEYKAGRTPNPDILCNKEIKFKAFLEFAAEDLGADYIATGHYVRRADVDGKSRLLRGLDSNKDQSYFLYTLSHEQIAQSLFPVGELEKPQVRKIAEDLGLVTAKKKDSTGICFIGERKFREFLGRYLPAQPGKIITVDGDEIGEHQGLMYHTLGQRKGLGIGGTKEGTEEPWYVVDKDVENNILVVAQGHEHPRLMSVGLIAQQLHWVDREPFTGTMRCTVKTRYRQTDIPCTVKALDDDRIEVIFDEPVAAVTPGQSAVFYNGEVCLGGGIIEQRLPLPV	4.81 ± 0.17	4.73 ± 0.56	4.73 ± 0.06	5.33 ± 0.43	4.71 ± 0.32	2.89 ± 0.46	7.28 ± 0.86	10.4 ± 1.7	4.77 ± 0.39	8.691 ± 0.075	5.5 ± 0.061	12 ± 1.4
MMKTMRIAAIPGDGIGKEVLPEGIRVLQAAAERWGFALSFEQMEWASCEYYSHHGKMMPDDWHEQLSRFDAIYFGAVGWPDTVPDHISLWGSLLKFRREFDQYVNLRPVRLFPGVPCPLAGKQPGDIDFYVVRENTEGEYSSLGGRVNEGTEHEVVIQESVFTRRGVDRILRYAFELAQSRPRKTLTSATKSNGLAISMPYWDERVEAMAENYPEIRWDKQHIDILCARFVMQPERFDVVVASNLFGDILSDLGPACTGTIGIAPSANLNPERTFPSLFEPVHGSAPDIYGKNIANPIATIWAGAMMLDFLGNGDERFQQAHNGILAAIEEVIAHGPKTPDMKGNATTPQVADAICKIILR	4.1 ± 1.1	2.64 ± 0.46	2.66 ± 0.067	4.83 ± 2.4	2.68 ± 0.02	2.6 ± 0.4	4.42 ± 0.51	7.5 ± 1.2	2.6337 ± 0.002	3.89 ± 0.11	4.47 ± 0.67	11.1 ± 0.13
